In assay [1] the target is T1, catalytic domain of MMP-1 (UniProt P03956 106-261).
T1 sequence: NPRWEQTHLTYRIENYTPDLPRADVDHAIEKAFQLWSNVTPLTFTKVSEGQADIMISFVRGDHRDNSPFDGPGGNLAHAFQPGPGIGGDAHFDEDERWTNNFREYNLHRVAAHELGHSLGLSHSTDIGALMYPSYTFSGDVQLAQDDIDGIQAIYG
The assay can be described thus: enzyme inhibition assay.

The target in assay [2] is catalytic domain of MMP-3 (UniProt P08254 100-272). The assay can be described thus: enzyme inhibition assay.
The target in assay [3] is catalytic domain of MMP-14 (UniProt P50281 112-292). The assay can be described thus: enzyme inhibition assay.
Assay [4] concerns the target T2, biotinylated catalytic domain of MMP-1 (UniProt P03956 106-261, biotin on Lys residues).
T2 sequence: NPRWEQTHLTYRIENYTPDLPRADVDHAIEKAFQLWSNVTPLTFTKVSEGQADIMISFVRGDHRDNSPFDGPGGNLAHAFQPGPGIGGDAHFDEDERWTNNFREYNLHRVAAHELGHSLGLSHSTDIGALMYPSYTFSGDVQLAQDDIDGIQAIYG
As to the kind of experiment: flow cytometry on cells.

Assay [5] addresses biotinylated catalytic domain of MMP-14 (UniProt P50281 112-292, biotin on Lys residues (EZ-Link sulfo-NHS-LC-LC-biotin)). The assay can be described thus: flow cytometry on cells.
Assay [6] has as its target biotinylated catalytic domain of MMP-3 (UniProt P08254 100-272, biotin on Lys residues). The assay can be described thus: flow cytometry on cells.

The results in this text go back to PMC7376575 (The Biochemical journal, 2020).

Chain of catalytic domain of MMP-3 (P08254 100-272): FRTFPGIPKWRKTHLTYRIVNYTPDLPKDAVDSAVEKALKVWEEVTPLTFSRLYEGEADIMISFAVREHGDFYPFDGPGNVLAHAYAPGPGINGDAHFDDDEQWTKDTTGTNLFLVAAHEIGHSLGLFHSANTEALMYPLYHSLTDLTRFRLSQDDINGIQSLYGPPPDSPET
Chain of biotinylated catalytic domain of MMP-3 (P08254 100-272): as above

B1: N-TIMP2 V71R (domain or fragment)
chain: CSCSPVHPQQAFCNADVVIRAKAVSEKEVDSGNDIYGNPIKRIQYEIKQIKMFKGPEKDIEFIYTAPSSARCGVSLDVGGKKEYLIAGKAEGDGKMHITLCDFIVPWDTLSTTQKKSLNHRYQMGCE
modifications: native disulfides
As to B1, the inhibitory constant (Ki) came to 5.59 nM in assay [1] and 86.2 nM in assay [2].

B2: N-TIMP2 S68E (domain or fragment)
chain: CSCSPVHPQQAFCNADVVIRAKAVSEKEVDSGNDIYGNPIKRIQYEIKQIKMFKGPEKDIEFIYTAPESAVCGVSLDVGGKKEYLIAGKAEGDGKMHITLCDFIVPWDTLSTTQKKSLNHRYQMGCE
modifications: native disulfides
As to B2, the inhibition constant (Ki) in assay [3] was found to be 1.42 nM; in assay [1] it was 0.249 nM; in assay [2], 4.71 nM.

B3: N-TIMP2 T99M (domain or fragment)
chain: CSCSPVHPQQAFCNADVVIRAKAVSEKEVDSGNDIYGNPIKRIQYEIKQIKMFKGPEKDIEFIYTAPSSAVCGVSLDVGGKKEYLIAGKAEGDGKMHIMLCDFIVPWDTLSTTQKKSLNHRYQMGCE
modifications: native disulfides
As to B3, the Ki came to 2.05 nM in assay [3], 0.085 nM in assay [1] and 8.29 nM in assay [2].

B4: N-TIMP2 S68M (domain or fragment)
chain: CSCSPVHPQQAFCNADVVIRAKAVSEKEVDSGNDIYGNPIKRIQYEIKQIKMFKGPEKDIEFIYTAPMSAVCGVSLDVGGKKEYLIAGKAEGDGKMHITLCDFIVPWDTLSTTQKKSLNHRYQMGCE
modifications: native disulfides
For B4, the Ki in assay [3] stood at 2.6 nM; in assay [1], 0.181 nM; in assay [2] it was 3.29 nM.

B5: yeast-displayed N-TIMP2WT (domain or fragment)
chain: CSCSPVHPQQAFCNADVVIRAKAVSEKEVDSGNDIYGNPIKRIQYEIKQIKMFKGPEKDIEFIYTAPSSAVCGVSLDVGGKKEYLIAGKAEGDGKMHITLCDFIVPWDTLSTTQKKSLNHRYQMGCE
Regarding B5, the Kd in assay [4] is 3.22 nM; in assay [5], 48.2 nM; in assay [6] it was 36.2 nM.

B6: N-TIMP2 H97R (domain or fragment)
chain: CSCSPVHPQQAFCNADVVIRAKAVSEKEVDSGNDIYGNPIKRIQYEIKQIKMFKGPEKDIEFIYTAPSSAVCGVSLDVGGKKEYLIAGKAEGDGKMRITLCDFIVPWDTLSTTQKKSLNHRYQMGCE
modifications: native disulfides
Consider B6, for which the Ki was 0.125 nM in assay [3], 0.031 nM in assay [1] and 1.31 nM in assay [2].

B7: N-TIMP2 T99Q (domain or fragment)
chain: CSCSPVHPQQAFCNADVVIRAKAVSEKEVDSGNDIYGNPIKRIQYEIKQIKMFKGPEKDIEFIYTAPSSAVCGVSLDVGGKKEYLIAGKAEGDGKMHIQLCDFIVPWDTLSTTQKKSLNHRYQMGCE
modifications: native disulfides
With B7, the Ki in assay [3] was 3.92 nM; in assay [1], 0.099 nM; in assay [2], 3.72 nM.

B8: N-terminal domain of the tissue inhibitor of metalloproteinase 2, wild type (domain or fragment)
chain: CSCSPVHPQQAFCNADVVIRAKAVSEKEVDSGNDIYGNPIKRIQYEIKQIKMFKGPEKDIEFIYTAPSSAVCGVSLDVGGKKEYLIAGKAEGDGKMHITLCDFIVPWDTLSTTQKKSLNHRYQMGCE
B8 showed a Ki in assay [2] of 1.34 nM.

B9: N-TIMP2 V71W (domain or fragment)
chain: CSCSPVHPQQAFCNADVVIRAKAVSEKEVDSGNDIYGNPIKRIQYEIKQIKMFKGPEKDIEFIYTAPSSAWCGVSLDVGGKKEYLIAGKAEGDGKMHITLCDFIVPWDTLSTTQKKSLNHRYQMGCE
modifications: native disulfides
On to B9, for which the results for the Ki in assay [3], in assay [1] and in assay [2] were 34.3 nM, 2.99 nM and 26.4 nM, respectively.

B10: N-TIMP2 T99G (domain or fragment)
chain: CSCSPVHPQQAFCNADVVIRAKAVSEKEVDSGNDIYGNPIKRIQYEIKQIKMFKGPEKDIEFIYTAPSSAVCGVSLDVGGKKEYLIAGKAEGDGKMHIGLCDFIVPWDTLSTTQKKSLNHRYQMGCE
modifications: native disulfides
As to B10, the figures for the Ki in assay [3], in assay [1] and in assay [2] were 0.534 nM, 0.08 nM and 4.24 nM, respectively.
